US20220177846A1

What was measured:
Assay in all cases: cell-based or functional assay
hKCNQ1/minK (human) = hKCNQ1/minK (human) (UniProt P51787)
hKV11.1/hERG (human) = hKV11.1/hERG (human) (UniProt Q12809)
hNav1.5 (human) = hNav1.5 (human) (UniProt Q14524)
hCav1.2 (human) = hCav1.2 (human) (UniProt Q13936)
Chain of hCav1.2 (human) (Q13936 whole entry): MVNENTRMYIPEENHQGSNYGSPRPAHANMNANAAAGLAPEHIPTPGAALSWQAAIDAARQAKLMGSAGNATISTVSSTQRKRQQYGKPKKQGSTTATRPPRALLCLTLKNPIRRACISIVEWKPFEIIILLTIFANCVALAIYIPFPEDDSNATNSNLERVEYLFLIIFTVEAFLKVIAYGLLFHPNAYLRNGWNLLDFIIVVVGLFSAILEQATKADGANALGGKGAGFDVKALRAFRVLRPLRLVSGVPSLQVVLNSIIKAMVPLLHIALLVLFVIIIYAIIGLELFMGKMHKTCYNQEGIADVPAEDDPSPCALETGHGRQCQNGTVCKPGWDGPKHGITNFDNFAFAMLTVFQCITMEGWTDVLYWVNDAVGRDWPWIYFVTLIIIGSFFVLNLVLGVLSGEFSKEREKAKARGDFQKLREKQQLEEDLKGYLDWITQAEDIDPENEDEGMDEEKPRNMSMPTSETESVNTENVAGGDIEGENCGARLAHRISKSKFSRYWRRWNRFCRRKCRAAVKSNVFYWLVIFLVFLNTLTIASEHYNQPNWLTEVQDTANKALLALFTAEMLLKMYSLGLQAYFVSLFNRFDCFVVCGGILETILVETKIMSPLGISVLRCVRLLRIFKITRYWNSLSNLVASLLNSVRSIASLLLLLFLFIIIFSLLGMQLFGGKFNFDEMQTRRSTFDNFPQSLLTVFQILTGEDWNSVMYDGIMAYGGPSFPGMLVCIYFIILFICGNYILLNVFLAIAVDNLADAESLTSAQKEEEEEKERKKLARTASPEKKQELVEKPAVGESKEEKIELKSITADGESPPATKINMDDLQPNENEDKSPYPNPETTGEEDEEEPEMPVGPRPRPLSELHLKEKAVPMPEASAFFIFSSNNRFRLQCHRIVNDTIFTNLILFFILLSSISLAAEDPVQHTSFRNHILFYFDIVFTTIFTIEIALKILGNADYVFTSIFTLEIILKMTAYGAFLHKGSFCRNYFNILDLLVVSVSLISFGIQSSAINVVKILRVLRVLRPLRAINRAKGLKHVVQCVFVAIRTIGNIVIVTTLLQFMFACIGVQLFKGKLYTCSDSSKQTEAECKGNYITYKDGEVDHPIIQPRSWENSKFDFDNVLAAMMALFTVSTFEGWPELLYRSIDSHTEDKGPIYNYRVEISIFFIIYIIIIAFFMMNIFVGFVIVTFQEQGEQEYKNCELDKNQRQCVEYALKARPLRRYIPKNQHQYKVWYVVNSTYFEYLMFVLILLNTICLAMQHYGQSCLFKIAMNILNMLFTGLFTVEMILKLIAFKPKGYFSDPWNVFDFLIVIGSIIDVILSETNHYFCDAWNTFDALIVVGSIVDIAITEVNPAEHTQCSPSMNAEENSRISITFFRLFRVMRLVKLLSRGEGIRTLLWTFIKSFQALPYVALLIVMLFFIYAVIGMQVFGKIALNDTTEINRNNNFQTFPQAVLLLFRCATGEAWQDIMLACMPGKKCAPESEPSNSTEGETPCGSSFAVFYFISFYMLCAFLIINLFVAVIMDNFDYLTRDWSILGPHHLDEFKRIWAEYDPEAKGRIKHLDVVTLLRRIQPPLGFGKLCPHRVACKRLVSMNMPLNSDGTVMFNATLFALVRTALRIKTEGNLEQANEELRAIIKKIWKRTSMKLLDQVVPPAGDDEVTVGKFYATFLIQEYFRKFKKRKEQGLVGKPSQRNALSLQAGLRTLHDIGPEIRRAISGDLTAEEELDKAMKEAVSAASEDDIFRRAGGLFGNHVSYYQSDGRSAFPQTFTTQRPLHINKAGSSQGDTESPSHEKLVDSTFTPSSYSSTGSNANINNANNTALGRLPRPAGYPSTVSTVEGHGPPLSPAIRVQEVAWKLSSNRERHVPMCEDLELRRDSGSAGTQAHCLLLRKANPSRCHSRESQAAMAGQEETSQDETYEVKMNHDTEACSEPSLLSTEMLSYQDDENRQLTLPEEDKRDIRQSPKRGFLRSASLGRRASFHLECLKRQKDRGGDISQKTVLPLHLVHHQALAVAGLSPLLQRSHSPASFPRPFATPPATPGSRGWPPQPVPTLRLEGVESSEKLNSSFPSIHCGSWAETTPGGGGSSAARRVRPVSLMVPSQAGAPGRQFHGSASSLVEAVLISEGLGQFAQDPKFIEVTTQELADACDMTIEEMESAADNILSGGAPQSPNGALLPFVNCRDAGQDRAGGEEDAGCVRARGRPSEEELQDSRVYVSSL

Chain of hKV11.1/hERG (human) (Q12809 whole entry): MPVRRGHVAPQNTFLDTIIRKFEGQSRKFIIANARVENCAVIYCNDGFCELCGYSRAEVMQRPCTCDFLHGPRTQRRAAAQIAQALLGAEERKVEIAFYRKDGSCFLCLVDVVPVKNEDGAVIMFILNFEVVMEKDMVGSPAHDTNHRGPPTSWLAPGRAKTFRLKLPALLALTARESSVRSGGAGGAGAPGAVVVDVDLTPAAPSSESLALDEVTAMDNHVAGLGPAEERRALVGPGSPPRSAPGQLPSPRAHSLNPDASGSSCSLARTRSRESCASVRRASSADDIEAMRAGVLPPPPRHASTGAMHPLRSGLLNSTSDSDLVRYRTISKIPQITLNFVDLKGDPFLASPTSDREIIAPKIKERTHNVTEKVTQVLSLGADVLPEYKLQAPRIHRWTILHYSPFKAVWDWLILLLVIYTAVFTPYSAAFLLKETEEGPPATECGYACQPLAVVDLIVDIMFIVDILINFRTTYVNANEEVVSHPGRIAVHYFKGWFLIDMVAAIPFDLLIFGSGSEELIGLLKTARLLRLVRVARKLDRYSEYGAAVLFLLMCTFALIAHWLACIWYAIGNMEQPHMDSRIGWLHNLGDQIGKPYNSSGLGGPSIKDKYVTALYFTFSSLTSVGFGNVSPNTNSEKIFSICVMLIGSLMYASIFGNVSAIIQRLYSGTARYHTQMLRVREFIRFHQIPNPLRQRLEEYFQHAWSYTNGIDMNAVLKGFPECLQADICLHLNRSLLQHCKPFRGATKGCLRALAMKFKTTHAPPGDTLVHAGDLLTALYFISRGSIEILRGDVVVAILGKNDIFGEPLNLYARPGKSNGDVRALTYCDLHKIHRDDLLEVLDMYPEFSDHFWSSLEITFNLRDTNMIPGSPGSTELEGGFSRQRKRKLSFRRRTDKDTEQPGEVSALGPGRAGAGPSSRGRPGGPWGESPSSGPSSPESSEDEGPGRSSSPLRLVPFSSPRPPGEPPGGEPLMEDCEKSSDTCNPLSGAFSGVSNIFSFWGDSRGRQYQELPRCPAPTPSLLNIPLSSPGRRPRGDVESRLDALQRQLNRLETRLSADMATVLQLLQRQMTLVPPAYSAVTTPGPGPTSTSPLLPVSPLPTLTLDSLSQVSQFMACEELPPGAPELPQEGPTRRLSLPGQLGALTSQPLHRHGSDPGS

“Hi1a (recombinant, with non-native N-terminal serine) (peptide)” was tested, and the % inhibition of hKCNQ1/mink current, mean, 1 µM Hi1a (hKCNQ1/minK (human)) was 0.17%, the % inhibition of hKCNQ1/mink current, n1, 1 µM Hi1a (hKCNQ1/minK (human)) was 1.87% and the % inhibition of hKCNQ1/mink current, n2, 1 µM Hi1a (hKCNQ1/minK (human)) was -0.67%. The % inhibition of hKCNQ1/mink current, n3, 1 µM Hi1a (hKCNQ1/minK (human)) was -0.68%, the % inhibition of hERG current, mean, 1 µM Hi1a (hKV11.1/hERG (human)) was -6.2% and the % inhibition of hERG current, n1, 1 µM Hi1a (hKV11.1/hERG (human)) was -7.5%. It also gave a % inhibition of hERG current, n2, 1 µM Hi1a (hKV11.1/hERG (human)) of 1.58%, a % inhibition of hERG current, n3, 1 µM Hi1a (hKV11.1/hERG (human)) of -12.7% and a % inhibition of hNav1.5 current, mean, 1 µM Hi1a (hNav1.5 (human)) of 8.46%. For the same substance, the % inhibition of hNav1.5 current, n1, 1 µM Hi1a (hNav1.5 (human)) was 7.31%, the % inhibition of hNav1.5 current, n2, 1 µM Hi1a (hNav1.5 (human)) was 11% and the % inhibition of hNav1.5 current, n3, 1 µM Hi1a (hNav1.5 (human)) was 7.1%. The % inhibition, hNav1.5 Late current antagonist assay, mean, 1 µM Hi1a (hNav1.5 (human)) was -12.4%, the % inhibition, hNav1.5 Late current antagonist assay, n1, 1 µM Hi1a (hNav1.5 (human)) was -9.74% and the % inhibition, hNav1.5 Late current antagonist assay, n2, 1 µM Hi1a (hNav1.5 (human)) was -13.9%. It also gave a % inhibition, hNav1.5 Late current antagonist assay, n3, 1 µM Hi1a (hNav1.5 (human)) of -13.4%, a % inhibition of hCav1.2 current, mean, 1 µM Hi1a (hCav1.2 (human)) of 8.98% and a % inhibition of hCav1.2 current, n1, 1 µM Hi1a (hCav1.2 (human)) of 2.79%. It also gave a % inhibition of hCav1.2 current, n2, 1 µM Hi1a (hCav1.2 (human)) of 13.2% and a % inhibition of hCav1.2 current, n3, 1 µM Hi1a (hCav1.2 (human)) of 10.9%.
